Assay [1] concerns the target T1, canine FcRn complex (FcRn-α subunit and β-microglobulin) (canine, UniProt A0A8I3PFR8 25-347, biotin on the BAP tag by BirA (Example 5 only)). Put plainly: SPR (Biacore), biotinylated FcRn on SA chip, IgG flowed, pH 7.4, 15 C.
Assay [2] has as its target IL-31 (target protein of mAb1). Put plainly: cell-based or functional assay.
Assay [3] has as its target IL-31 (target protein of mAb1). Kind of assay: SPR (Biacore T200), target amine-coupled to CM5, antibody flowed, 15 C, 1:1 model. Background: Surface plasmon resonance follows binding to a sensor surface in real time, without labels.
Assay [4] has as its target T1, canine FcRn complex (FcRn-α subunit and …). Put plainly: SPR (Biacore), FcRn amine-coupled to CM5, IgG flowed, pH 6, 15 C.
The target is the same in assay [5]. Kind of assay: SPR (Biacore), biotinylated FcRn on SA chip, IgG flowed, pH 6, 15 C.
The target is the same in assay [6]. The description is as above. The source holds these as a separate data set.
Assay [7] has the same target. Kind of assay: SPR (Biacore), biotinylated FcRn on SA chip, IgG flowed, pH 7.4, 15 C. The source holds these as a separate data set.
Assay [8] addresses NGF (target protein of mAb2). Kind of assay: cell-based or functional assay.
Assay [9] addresses canine FcRn complex (FcRn-α subunit and β-microglobulin) (canine). Kind of assay: SPR (Biacore), FcRn amine-coupled to CM5, IgG flowed, pH 6, 15 C.
The target in assay [10] is NGF (target protein of mAb2). Put plainly: SPR (Biacore T200), target amine-coupled to CM5, antibody flowed, 15 C, 1:1 model.
The target in assay [11] is canine FcRn complex (FcRn-α subunit and β-microglobulin) (canine). Kind of assay: SPR (Biacore), FcRn amine-coupled to CM5, IgG flowed, pH 7.2, 15 C.

Positions count from the first letter of the chain named. Names and notes keep the numbering of the source.

T1 sequence (A0A8I3PFR8 entry or part of it, one chain of several): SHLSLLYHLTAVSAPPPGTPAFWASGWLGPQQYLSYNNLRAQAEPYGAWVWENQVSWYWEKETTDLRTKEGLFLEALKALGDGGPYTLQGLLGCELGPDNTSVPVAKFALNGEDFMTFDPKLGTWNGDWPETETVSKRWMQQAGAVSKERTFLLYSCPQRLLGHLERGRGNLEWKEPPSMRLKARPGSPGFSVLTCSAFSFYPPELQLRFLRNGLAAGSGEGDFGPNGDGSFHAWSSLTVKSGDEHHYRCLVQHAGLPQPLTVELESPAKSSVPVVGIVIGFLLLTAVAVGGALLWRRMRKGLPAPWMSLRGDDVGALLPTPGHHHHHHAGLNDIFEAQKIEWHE

B1: mAb1, caninized anti-IL31 antibody 34D03, canine IgGB (65), WT (antibody)
heavy: EVQLVESGGDLVKPGGSLRLSCVASGFTFSNYGMSWVRQAPGKGLQWVATISYGGSYTYYPDNIKGRFTISRDNAKNTLYLQMNSLRAEDTAMYYCVRGYGYDTMDYWGQGTLVTVSSASTTAPSVFPLAPSCGSTSGSTVALACLVSGYFPEPVTVSWNSGSLTSGVHTFPSVLQSSGLYSLSSMVTVPSSRWPSETFTCNVAHPASKTKVDKPVPKRENGRVPRPPDCPKCPAPEMLGGPSVFIFPPKPKDTLLIARTPEVTCVVVDLDPEDPEVQISWFVDGKQMQTAKTQPREEQFNGTYRVVSVLPIGHQDWLKGKQFTCKVNNKALPSPIERTISKARGQAHQPSVYVLPPSREELSKNTVSLTCLIKDFFPPDIDVEWQSNGQQEPESKYRTTPPQLDEDGSYFLYSKLSVDKSRWQRGDTFICAVMHEALHNHYTQESLSHSPGK
VL: EIVMTQSPASLSLSQEEKVTITCKASQSVSFAGTGLMHWYQQKPGQAPKLLIYRASNLEAGVPSRFSGSGSGTDFSFTISSLEPEDVAVYYCQQSREYPWTFGQGTKLEIK
notes: VH/VL: the caninized 34D03 entries of the listing; also called mAb1 WT; mAb1 Wild-Type
What is called Kd is the equilibrium constant for the complex coming apart. For B1, the Kd in assay [1] is 18700 nM; in assay [3], 0.483 nM; in [4], 15 to 24.4 nM; in assay [5] it was 19.9 nM. This molecule also had an IC50 (cell based potency assay) in assay [2] of 1.1 nM.

B2: mAb1, caninized anti-IL31 antibody 34D03, canine IgGB, N434V (antibody)
heavy: B1 heavy with N440V
light: EIVMTQSPASLSLSQEEKVTITCKASQSVSFAGTGLMHWYQQKPGQAPKLLIYRASNLEAGVPSRFSGSGSGTDFSFTISSLEPEDVAVYYCQQSREYPWTFGQGTKLEIKRNDAQPAVYLFQPSPDQLHTGSASVVCLLNSFYPKDINVKWKVDGVIQDTGIQESVTEQDKDSTYSLSSTLTMSSTEYLSHELYSCEITHKSLPSTLIKSFQRSEC
notes: VH/VL: the caninized 34D03 entries of the listing; also called ID No. 20; copies: 2 + 2
Consider B2, for which the values for the Kd in assay [6] and in assay [7] were 6.16 nM and 2750 nM, respectively.

B3: mAb1, caninized anti-IL31 antibody 34D03, canine IgGB, N434W (antibody)
heavy: B1 heavy with N440W
light: B2 light
notes: VH/VL: the caninized 34D03 entries of the listing; also called ID No. 21; copies: 2 + 2
Turning to B3, the dissociation constant Kd in assay [6] was 1.98 nM; in [7], 25300 nM.

B4: mAb1, caninized anti-IL31 antibody 34D03, canine IgGB, N434T (antibody)
heavy: B1 heavy with N440T
light: B2 light
notes: VH/VL: the caninized 34D03 entries of the listing; also called ID No. 19; copies: 2 + 2
Turning to B4, the results for the Kd in assay [6] and in assay [7] were 34.2 nM and 554 nM, respectively.

B5: mAb1, caninized anti-IL31 antibody 34D03, canine IgGB, N434Q (antibody)
heavy: B1 heavy with N440Q
light: B2 light
notes: VH/VL: the caninized 34D03 entries of the listing; also called ID No. 16; copies: 2 + 2
B5: the Kd is 5.91 nM in assay [6] and 21.8 nM in assay [7].

B6: mAb1, caninized anti-IL31 antibody 34D03, canine IgGB, N434R (antibody)
heavy: B1 heavy with N440R
light: B2 light
notes: VH/VL: the caninized 34D03 entries of the listing; also called ID No. 17; copies: 2 + 2
In the case of B6, the Kd in assay [6] is 0.906 nM; in [7], 3.11 nM.

B7: mAb1, caninized anti-IL31 antibody 34D03, canine IgGB, N434M (antibody)
heavy: B1 heavy with N440M
light: B2 light
notes: VH/VL: the caninized 34D03 entries of the listing; also called ID No. 15; copies: 2 + 2
As for B7, the figures for the Kd in assay [6] and in assay [7] were 14.2 nM and 146000 nM, respectively.

B8: mAb1, caninized anti-IL31 antibody 34D03, canine IgGB, N434S (antibody)
heavy: B1 heavy with N440S
light: B2 light
notes: VH/VL: the caninized 34D03 entries of the listing; also called ID No. 18; copies: 2 + 2
On to B8, for which the Kd was determined as 20.2 nM in assay [6] and 6960 nM in assay [7].

B9: mAb1, caninized anti-IL31 antibody 34D03, canine IgGB, N434K (antibody)
heavy: B1 heavy with N440K
light: B2 light
notes: VH/VL: the caninized 34D03 entries of the listing; also called ID No. 13; copies: 2 + 2
With B9, the results for the equilibrium dissociation constant (Kd) in [1] and in [5] were 7.86 nM and 9.11 nM, respectively.

B10: mAb1, caninized anti-IL31 antibody 34D03, canine IgGB, N434L (antibody)
heavy: B1 heavy with N440L
light: B2 light
notes: VH/VL: the caninized 34D03 entries of the listing; also called ID No. 14; copies: 2 + 2
Take B10: the figures for the equilibrium dissociation constant (Kd) in assay [1] and in assay [5] were 997 nM and 14.3 nM, respectively.

B11: mAb2 of Tables 1-3, caninized anti-NGF antibody, canine IgGB (65), WT (antibody, part only; not given: Anti-NGF heavy and light variable domains, part only)
heavy, part: ASTTAPSVFPLAPSCGSTSGSTVALACLVSGYFPEPVTVSWNSGSLTSGVHTFPSVLQSSGLYSLSSMVTVPSSRWPSETFTCNVAHPASKTKVDKPVPKRENGRVPRPPDCPKCPAPEMLGGPSVFIFPPKPKDTLLIARTPEVTCVVVDLDPEDPEVQISWFVDGKQMQTAKTQPREEQFNGTYRVVSVLPIGHQDWLKGKQFTCKVNNKALPSPIERTISKARGQAHQPSVYVLPPSREELSKNTVSLTCLIKDFFPPDIDVEWQSNGQQEPESKYRTTPPQLDEDGSYFLYSKLSVDKSRWQRGDTFICAVMHEALHNHYTQESLSHSPGK
In the case of B11, the IC50 (cell based potency assay) in assay [8] came to 23.7 nM. The dissociation constant (Kd) in assay [9] stood at 57.2 nM; in [10], 0.0851 nM.

B12: mAb2 of Tables 1-3, caninized anti-NGF antibody, canine IgGB (65), N434H (antibody, part only; not given: Anti-NGF heavy and light variable domains, part only)
heavy, part: B11 heavy, part with N322H
For B12, the Kd was 1300 nM in assay [11], 7.3 nM in assay [9] and 0.0555 nM in assay [10]. Also, the IC50 (cell based potency assay) in assay [8] amounted to 20.9 nM.

B13: mAb2 of Table 4A, caninized anti-NGF antibody ZTS-841, canine IgGB, N434K (antibody)
heavy: EVQLVESGGDLVKPGGSLRLSCVASGFTFSSHGMHWVRQSPGKGLQWVAVINSGGSSTYYTDAVKGRFTISRDNAKNTVYLQMNSLRAEDTAMYYCAKESVGGWEQLVGPHFDYWGQGTLVIVSSASTTAPSVFPLAPSCGSTSGSTVALACLVSGYFPEPVTVSWNSGSLTSGVHTFPSVLQSSGLYSLSSMVTVPSSRWPSETFTCNVAHPASKTKVDKPVPKRENGRVPRPPDCPKCPAPEMLGGPSVFIFPPKPKDTLLIARTPEVTCVVVDLDPEDPEVQISWFVDGKQMQTAKTQPREEQFNGTYRVVSVLPIGHQDWLKGKQFTCKVNNKALPSPIERTISKARGQAHQPSVYVLPPSREELSKNTVSLTCLIKDFFPPDIDVEWQSNGQQEPESKYRTTPPQLDEDGSYFLYSKLSVDKSRWQRGDTFICAVMHEALHKHYTQESLSHSPGK
VL: QSVLTQPTSVSGSLGQRVTISCSGSTNNIGILGASWYQLFPGKAPKLLVYGNGNRPSGVPDRFSGADSGDSVTLTITGLQAEDEADYYCQSFDTTLGAHVFGGGTHLTVL
notes: also called ID No. 51
As to B13, the dissociation constant (Kd) was 594 nM in assay [1] and 1.93 nM in assay [5].

The values above are taken from patent US20260193342A1 (ZOETIS SERVICES, published 2026).
